Measured values: the supplement of paper PMC7877785
± gives the uncertainty stated by the source.

Assay: self-splicing fitness, log relative to wild type (ln ratio); higher = more splicing; Tetrahymena group I intron in knt gene, E. coli kanamycin selection, DiMSum; sequences stand for … in CUCUCU…GGAGGGAAAAGUUAUCAGGCAUGCACCUGGUAGCUAGUCUUUAAACCAAUAGAUUGCAUCGGUUUAAAAGGCAAGACCGUCAAAUUGCGGGAAAGGGGUCAACAGCCGUUCAGUACCAAGUCUCAGGGGAAACUUUGAGAUGGCCUUGCAAAGGGUAUGGUAAUAAGCUGACGGACAUGGUCCUAACCACGCAGCCAAGUCCUAAGUCAACAGAUCUUCUGUUGAUAUGGAUGCAGUUCACAGACUAAAUGUCGGUCGGGGAAGAUGUAUUCUUCUCAUAAGAUAUAGUCGGACCUCUCCUUAAUGGGAGCUAGCGGAUGAAGUGAUGCAACACUGGAGCCGCUGGGAACUAAUUUGUAUGCGAAAGUAUAUUGAUUAGUUUUGGAGUACUCGUGGUCG
Method in brief: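 The eight P1ex-region nucleotides of an intron in the knt kanamycin-resistance gene on pET-22b(+) were all randomised and the library put into E. coli BL21(DE3). Six replicate transformations were grown overnight at 37°C or 30°C on LB agar with or without 25 μg/mL kanamycin, together with 100 μg/mL carbenicillin, 50 μM IPTG and 0.2% rhamnose. Colonies were pooled and amplicon-sequenced on an Illumina HiSeq 2500. Fitness from DiMSum is the error-weighted combination of wild-type-normalised replicate fold changes, kanamycin over none.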

Sequence	self-splicing fitness (ln) (30 °C)	self-splicing fitness (ln) (37 °C)
GAGAAGCAAUAUUACGUAAG	-2.72 ± 0.15	-1.1 ± 0.15
CAAAAGCAAUAUUACGAAUC	-4.86 ± 0.38	-2.71 ± 0.21
GAGUAGCAAUAUUACGUUGG	-3.06 ± 0.25	-3.3 ± 0.46
GUCUAGCAAUAUUACGUGCU	-3.08 ± 0.23	-1.87 ± 0.39
AAUCAGCAAUAUUACGUGGU	-1.65 ± 0.088	-0.981 ± 0.11
UUCUAGCAAUAUUACGUGCU	-3.37 ± 0.24	-2.11 ± 0.24
AACAAGCAAUAUUACGCGGG	-3.55 ± 0.14	-2.46 ± 0.15
ACAUAGCAAUAUUACGUAAC	-3.65 ± 0.23	-3.2 ± 0.35
AUGUAGCAAUAUUACGGUAG	-4.38 ± 0.32	-3.33 ± 0.42
GAGCAGCAAUAUUACGAGGU	-4.1 ± 0.33	-1.65 ± 0.15
UCCUAGCAAUAUUACGGGUU	-2.26 ± 0.13	-1.78 ± 0.15
CAGGAGCAAUAUUACGGUUC	-2.71 ± 0.43	-1.74 ± 0.28
AUUGAGCAAUAUUACGGAGU	-3.76 ± 0.15	-1.86 ± 0.1
GGAAAGCAAUAUUACGCUGC	-3.32 ± 0.38	
CCGGAGCAAUAUUACGUGGA	-3.59 ± 0.47	-2.16 ± 0.25
CCGGAGCAAUAUUACGGCAU	-2.81 ± 0.22	-1.55 ± 0.19
GGUCAGCAAUAUUACGACGA	-0.308 ± 0.072	0.501 ± 0.11
UACUAGCAAUAUUACGUCUG	-0.817 ± 0.07	-0.845 ± 0.086
AGGAAGCAAUAUUACGUUUG	-3.55 ± 0.17	-2.48 ± 0.19
GGUUAGCAAUAUUACGAGUU	-1.87 ± 0.15	-0.221 ± 0.12

Sequence	self-splicing fitness (ln) (30 °C)	self-splicing fitness (ln) (37 °C)
CUUAAGCAAUAUUACGAUAG	-2.01 ± 0.15	-0.283 ± 0.15
CCCGAGCAAUAUUACGAAUG	-2.61 ± 0.18	-1.41 ± 0.22
UUCGAGCAAUAUUACGAAGA	-2 ± 0.29	-1.36 ± 0.25
CAUUAGCAAUAUUACGUGUC		-2.18 ± 0.24
AAAAAGCAAUAUUACGUAGG	-1.7 ± 0.093	-1.66 ± 0.11
GGAAAGCAAUAUUACGGCAC	-0.927 ± 0.12	-0.0107 ± 0.14
GCCGAGCAAUAUUACGCGGA	-1.04 ± 0.17	0.224 ± 0.14
GGCUAGCAAUAUUACGAGUU	-1.95 ± 0.11	-0.414 ± 0.11
AUCUAGCAAUAUUACGGCUC	-0.871 ± 0.16	-0.185 ± 0.19
GGAAAGCAAUAUUACGCUAU	-2.74 ± 0.28	-2.11 ± 0.21
UGCCAGCAAUAUUACGUCCU	-1.6 ± 0.14	0.244 ± 0.14
UGCCAGCAAUAUUACGCUUU	-2.03 ± 0.079	-1.76 ± 0.074
UCCGAGCAAUAUUACGAGUU	-2.64 ± 0.2	
UCUUAGCAAUAUUACGAUCA	-1.3 ± 0.22	-1.15 ± 0.23
CAGCAGCAAUAUUACGGGAG	-1.2 ± 0.061	-0.908 ± 0.082
CAUGAGCAAUAUUACGGAGU	-4.1 ± 0.4	-3.1 ± 0.31
AAUGAGCAAUAUUACGAUUC	-3.1 ± 0.26	-2.43 ± 0.26
CAGUAGCAAUAUUACGCCCA	-2.16 ± 0.26	-0.476 ± 0.45
ACAAAGCAAUAUUACGCAAA	-2.72 ± 0.14	-1.6 ± 0.12
